Read-outs that look alike come from different tables or passages of the source.
Substance | enzymatic_activity (phosphorylation at Y416) | enzymatic_activity (phosphorylation at Y527)
cSrc: Y416F | abolishes | –
cSrc: Y527F | – | increases

From PMC5216914
